Reference: paper PMC3585325

Molecular target: recombinant human IGF2R extracellular domains 1–15, biotinylated CD4 (domains 3 and 4) fusion protein (human) (UniProt P11717)
Experiment: SPR; BIAcore T200; 1800 RU biotinylated IGF2R fusion protein immobilised on a streptavidin-loaded CM5 chip; IGF2 256 to 0.125 nM injected for 200 s at 40 µL/min, 25°C, HBS-EP buffer; kinetic fit to a 1:1 binding model and steady state analysis

Substance	Kd [nM]
recombinant mouse IGF2 (ligand)	3 to 6
recombinant human IGF2 (ligand)	1 to 4
